Measurements published in patent publication US8492329B2, “Bioactive peptides and methods of using same” (Compugen Ltd., priority 2007, dated 2013).
No end group written: not given here.

Key:
LGR8 (RXFP2) = LGR8 (RXFP2) (Homo sapiens, UniProt Q8WXD0); test: ACEA RT-CES cell impedance, LGR8 transfected CHO-K1 cells; type: cell-based; set-up: expressed in transfected cells; host or cells: CHO-K1 (transient); conditions: P74C13V 10 uM, P59C13V 10 uM, H2 Relaxin 1 uM, FIG. 14
From the text: ACEA RT-CES screen is a noninvasive and label-free assay for GPCRs that can be used with both engineered and nonengineered cell lines. The assay is based on using cell-electrode impedance to measure minute changes in cellular morphology as a result of ligand-dependent GPCR activation and is described in Naichen Yu, et al., Anal. Chem., 78 (1), 35-43, 2006. 10.1021/ac051695v S0003-2700(05)01695-1. The Rho family of small GTPases, which include Rho, Rac, and CDC42, are well-characterized effectors of oncogenes, growth factor and adhesion-mediated signaling pathways and are not classically thought of as being key effectors for GPCRs. Rho family GTPases participate in a number of cellular processes, the main one being regulation and maintenance of specific structures within the actin cytoskeleton framework. […] The current view of the actin cytoskeleton is that of a dynamic and plastic system that is a reflection and manifestation of the intracellular signaling and not simply a static structure designed to maintain cellular architecture. Since GPCRs couple to the actin cytoskeletal network and induce very defined morphological changes, it is possible to harness this information as a functional and biologically relevant readout for GPCRs.
ACEA biosciences; has designed electronic cell sensor arrays embedded in the bottom of the well of microtiter plates that are capable of measuring minute changes in cell morphology. The electronic sensors measure changes in cell-substrate impedance as a result of the disruption of the ionic environment due to the presence of cell and cell morphology dynamics. The main advantages offered by using cell-substrate impedance and cell morphology as a readout are that both exogenously expressed and endogenous receptors can be assayed without the need for engineering the cell with promiscuous G proteins and reporters or labeling the cells with dyes. In addition, since the readout is noninvasive, multiple stimulations with the same ligand or different ligands can be performed to assess events such as desensitization and receptor cross-talk. […]

GPR39 = target: T1, GPR39 (Homo sapiens, UniProt O43194); test: ACEA RT-CES cell impedance, GPR39 transfected CHO-K1 cells; type: cell-based; conditions: P74C13V 10 uM, H2 Relaxin 1 uM, FIG. 12
T1 construct: expressed in transfected cells; host or cells: CHO-K1 (transient, FuGENE6; pIRES-eGFP co-transfected)
T1 sequence (O43194 1-453): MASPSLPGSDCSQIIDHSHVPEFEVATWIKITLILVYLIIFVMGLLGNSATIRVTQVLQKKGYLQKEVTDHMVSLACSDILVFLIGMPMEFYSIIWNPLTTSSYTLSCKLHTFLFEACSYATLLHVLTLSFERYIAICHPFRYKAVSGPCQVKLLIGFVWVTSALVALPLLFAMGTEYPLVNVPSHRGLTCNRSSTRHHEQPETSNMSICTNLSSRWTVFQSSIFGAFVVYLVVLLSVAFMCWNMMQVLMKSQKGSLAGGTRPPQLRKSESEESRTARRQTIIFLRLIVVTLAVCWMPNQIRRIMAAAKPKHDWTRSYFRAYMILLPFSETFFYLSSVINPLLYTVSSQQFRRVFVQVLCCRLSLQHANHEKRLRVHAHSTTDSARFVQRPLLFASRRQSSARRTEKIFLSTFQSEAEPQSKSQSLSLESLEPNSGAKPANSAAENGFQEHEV
From the text: ACEA RT-CES screen is a noninvasive and label-free assay for GPCRs that can be used with both engineered and nonengineered cell lines. The assay is based on using cell-electrode impedance to measure minute changes in cellular morphology as a result of ligand-dependent GPCR activation and is described in Naichen Yu, et al., Anal. Chem., 78 (1), 35-43, 2006. 10.1021/ac051695v S0003-2700(05)01695-1. The Rho family of small GTPases, which include Rho, Rac, and CDC42, are well-characterized effectors of oncogenes, growth factor and adhesion-mediated signaling pathways and are not classically thought of as being key effectors for GPCRs. […] Since GPCRs couple to the actin cytoskeletal network and induce very defined morphological changes, it is possible to harness this information as a functional and biologically relevant readout for GPCRs.
ACEA biosciences; has designed electronic cell sensor arrays embedded in the bottom of the well of microtiter plates that are capable of measuring minute changes in cell morphology. […] The main advantages offered by using cell-substrate impedance and cell morphology as a readout are that both exogenously expressed and endogenous receptors can be assayed without the need for engineering the cell with promiscuous G proteins and reporters or labeling the cells with dyes. […]

Chain of LGR8 (RXFP2) (Q8WXD0 whole entry): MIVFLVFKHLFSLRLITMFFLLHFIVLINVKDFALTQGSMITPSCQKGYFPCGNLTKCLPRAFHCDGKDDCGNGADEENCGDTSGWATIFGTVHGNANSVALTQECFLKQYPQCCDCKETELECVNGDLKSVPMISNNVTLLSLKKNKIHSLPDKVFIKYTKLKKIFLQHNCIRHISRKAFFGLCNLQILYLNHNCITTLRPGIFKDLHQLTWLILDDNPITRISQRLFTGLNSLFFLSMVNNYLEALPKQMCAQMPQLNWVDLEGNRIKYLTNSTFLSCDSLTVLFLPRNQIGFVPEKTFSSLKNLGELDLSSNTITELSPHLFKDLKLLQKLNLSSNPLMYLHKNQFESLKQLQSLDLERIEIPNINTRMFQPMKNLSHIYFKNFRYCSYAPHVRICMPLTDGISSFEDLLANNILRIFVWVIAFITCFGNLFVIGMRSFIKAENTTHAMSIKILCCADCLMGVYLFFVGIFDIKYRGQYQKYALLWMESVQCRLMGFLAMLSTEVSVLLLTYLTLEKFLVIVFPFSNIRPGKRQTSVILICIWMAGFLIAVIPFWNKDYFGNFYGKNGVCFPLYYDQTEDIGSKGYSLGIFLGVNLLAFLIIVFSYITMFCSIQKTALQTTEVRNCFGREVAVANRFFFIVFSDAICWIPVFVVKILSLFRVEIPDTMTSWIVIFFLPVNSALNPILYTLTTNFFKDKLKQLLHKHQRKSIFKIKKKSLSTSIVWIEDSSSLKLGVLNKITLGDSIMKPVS

Row | effect on cell impedance (normalized cell index) (LGR8 (RXFP2)) | effect on cell impedance (normalized cell index) (GPR39) | Substance
1 | no significant effect as compared to BSA | – | GQKGQVGPPGAAVRRAYAAFSV [Peptide P59C13V]
2 | strong cellular effect | moderate yet visible effect | GQKGQVGPPGAAVRRAYAAFSVGRRAYAAFSV-OH [Peptide P74C13V]
3 | strong cellular effect | moderate yet visible effect | H2 Relaxin: H2 Relaxin (ACS), positive control, known ligand of LGR7 (RXFP1) [reference compound]
